Results reported in patent US11397178B2, “Method of predicting progression of idiopathic pulmonary fibrosis and monitoring of therapeutic efficacy” (Cedars-Sinai Medical Center, priority 2016, dated 2022).

Test system: CCR10+ cells
Test: Humanized NSG-GFP mice: KB004 / KB243 treatment (GFP IHC, flow cytometry)
Format: in vivo, human IPF cells in NSG-GFP mice
Settings: 5 mg/kg i.p. twice a week for 5 weeks, day 35
Description: NSG-GFP mice. (A) IPF cells were injected intravenously into NSG-GFP mice, and 2 hours later groups of mice received either 5 mg/kg of KB004 (an afucosylated anti-EphA3 mAb) or KB243 (an isotype control) via intraperitoneal injection. Both groups of mice were injected twice a week with the antibodies for 5 weeks after which lungs and spleen were collected for histological and/or flow cytometric analysis. (B-C) Depicted are representative images of GFP-stained NSG mouse lung (red indicates the presence of transgenic GFP mouse cells) at day 35 after IPF lung injection in both the KB243 (B) and KB004 (C) treatment groups. (D) Flow cytometric dot plots depicting GFP^− staining for human-CD45, CCR10 and/or EpCAM proteins. Representative dot plots for (from left to right) GFP^− cells expressing CD45, CD45, and CCR10 or CCR10 alone in humanized NSG-GFP mice treated either with KB243 (top) or KB004 (bottom) antibodies are shown. (E-F) The average number of GFP^− CD45^+ CCR10^+ (E) and GFP^− Lin^− CCR10^+ (F) cells in non-humanized and humanized NSG mice treated with either KB243 or KB004. Data shown are mean±sem n=4-5/group. *p≤0.05
Six to eight-week old, female, pathogen free NOD Cg-Prkdc^SCID IL2rg^Tm1wil Szi (NSG) or NOD.Cg-Prkdc^SCID IL2rg^tm1Wil Tg(CAG-EGFP) 10sb/SzJ (NSG-GFP) were purchased from Jackson Laboratories and housed in Cedars-Sinai Medical Center's high isolation animal rooms. […] All NSG groups were monitored daily and mice were sacrificed if there is evidence for morbidity such as weight loss of more than 20%, loss of fur, paralysis and/or lack of responsiveness when handled.
Murine lung cellular suspensions were generated using a mouse lung dissociation kit, C-tubes, and a GentleMacs dissociator (Miltenyi Biotech). […] Unstained, isotype controls, fluorescent minus one controls and staining in non-humanized murine lung and spleen suspensions were utilized to gate out any non-specific antibody binding and background fluorescence. […]

B1: KB004: afucosylated anti-EphA3 mAb supplied by Kalobios; targets EphA3+ cells via antibody-dependent cell-mediated cytotoxicity (ADCC) (antibody, chains of the INN, looked up, V domains shown)
VH: QVQLVQSGAEVKKPGASVKVSCKASGYTFTGYWMNWVRQAPGQGLEWMGDIYPGSGNTNYDEKFQGRVTMTRDTSISTAYMELSRLRSDDTAVYYCARGGYYEDFDSWGQGTTVTVSS
VL: DIQMTQSPSFLSASVGDRVTITCRASQGIISYLAWYQQKPEKAPKRLIYAASSLQSGVPSRFSGSGSGTEFTLTISSLQPEDFATYYCGQYANYPYTFGQGTKLEIK
B1 was tested. Which “GFP cells in lung by IHC, KB004 compared with KB243” value did it give?
Its value is “fewer GFP cells”.

What about the “number of CD45+ CCR10+ cells compared with KB243 group” value (flow cytometry) of the same molecule?
The value was “significantly reduced”.

And the “number of Lin- CCR10+ cells compared with KB243 group” value (flow cytometry)?
The value was “significantly reduced”.
